Numbering of substitutions follows the chain as printed. Entries after “also recorded” stand apart in the source; their conditions may differ. Blank lines part the entries; values can stand above or below the molecule they belong to.
What was measured:
mouse FSTL1 = biological target: T1, mouse FSTL1 (Mus musculus, UniProt Q62356); test: ELISA binding activity of purified antibody against mouse FSTL1 (Example 2)
T1 construct: AAA linker + 10xHis (C); made in house; host or cells: Expi293 (transient expression; purified from culture supernatant on HisPur Cobalt Resin)
T1 sequence (Q62356 with tags, fused parts or gaps): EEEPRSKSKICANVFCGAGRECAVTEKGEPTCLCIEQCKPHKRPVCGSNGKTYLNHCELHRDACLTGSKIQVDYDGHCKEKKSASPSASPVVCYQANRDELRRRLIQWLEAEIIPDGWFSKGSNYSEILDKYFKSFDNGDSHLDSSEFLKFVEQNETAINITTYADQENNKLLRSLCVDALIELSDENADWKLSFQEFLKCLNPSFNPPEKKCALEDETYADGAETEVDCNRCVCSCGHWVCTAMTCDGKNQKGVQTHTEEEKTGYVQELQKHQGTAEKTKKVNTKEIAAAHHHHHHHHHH
Experimental: The reactivity of the obtained antibody clones described above with FSTL1 was evaluated by ELISA under the following conditions.
(Table 2 ELISA conditions for binding activity evaluation of purified antibody) Antibodies used: anti-dinitrophenyl (DNP) antibody (negative control), #5-2, #5-3, #5-8, #5-10, #5-43, #6-55, and #7-34
FIGS. 2 and 3 show results of evaluating binding activity under the condition of Table 3 as to clones differing in screening and antibody purification timings.
Antibodies used: anti-dinitrophenyl (DNP) antibody (negative control), #5-2, #5-3, #5-8, #5-10, #5-43, #6-55, and #7-34
FIGS. 32 and 33 show results of evaluating binding activity under the condition of Table 3 as to clones differing in screening and antibody purification timings.

FSTL1 = biological target: T2, FSTL1 (Homo sapiens, UniProt Q12841); test: Affinity of mouse chimeric antibodies, Biacore T-200 (Example 33); assay type: binding
T2 sequence (Q12841 21-308): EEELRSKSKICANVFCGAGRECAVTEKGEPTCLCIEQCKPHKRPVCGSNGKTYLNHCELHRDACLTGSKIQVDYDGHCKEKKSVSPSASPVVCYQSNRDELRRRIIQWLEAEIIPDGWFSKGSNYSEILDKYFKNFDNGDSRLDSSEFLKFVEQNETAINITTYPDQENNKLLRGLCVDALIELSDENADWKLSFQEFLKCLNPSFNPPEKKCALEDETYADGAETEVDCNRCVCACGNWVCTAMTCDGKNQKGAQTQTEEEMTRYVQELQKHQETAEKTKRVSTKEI
Experimental: The mouse chimeric antibodies were immobilized onto Sensor Chip CM5 (GE Healthcare Japan Corp., BR-1005-30) using Mouse Antibody Capture Kit (GE Healthcare Japan Corp., BR-1008-38), and their affinity for human FSTL1 was calculated using Biacore T-200 (GE Healthcare Japan Corp.).
First, the exhaustive activity comparison of the obtained antibodies was conducted with the human FSTL1 concentration fixed to 10 μg/ml (Table 33-1, FIG. 28).
Next, the KD values of clone #6-55, #7-34, and #13 presumed to have high affinity in FIG. 28 were calculated with the antigen concentration adjusted to 0 to 20 μg/ml (Table 35-2).

[1] = tested on: induction of MSCs, cancer-associated MSCs, and M-MDSCs by FSTL1; test: Inhibitory activity against induction of MSC, cancer-associated MSC and MDSC by FSTL1 (Examples 13-15); assay type: cell-based, mouse
Experimental: Mouse bone marrow cells prepared in the same way as in Example 4 were supplemented with 20 ng/mL (final concentration) of FSTL1 and 10 μg/mL of the anti-FSTL1 antibody (#6-55, #7-34, #8-1, or #8-4), an anti-PD-L1 antibody reported to have an immunosuppression-mitigating effect, or a control antibody anti-DNP antibody and cultured under stimulation. 8 days thereafter, the number of cells was counted while the cells were stained with a PE-Cy5-labeled anti-CD45 antibody, a PE-labeled anti-ALCAM antibody, a FITC-labeled anti-CD271 antibody (Abcam plc, Cat. No. AB62122), a FITC-labeled anti-CD11b antibody (BD Pharmingen/Becton, Dickinson and Company, Cat. No. 553310), and a PE-Cy5-labeled anti-Gr1 antibody (eBioscience, Cat. No. 15-5931) in order to detect MSCs (CD45-negative cells), cancer-associated MSCs (CD45-negative, ALCAM-positive, and CD271-positive cells) which are MSCs increasing in number in association with cancer metastasis, and monocytic myeloid-derived suppressor cells (M-MDSCs: CD11b-positive, Gr1-positive, and ALCAM-positive cells) increasing in number together with cancer-associated MSCs, and the contents of the cells mentioned above were analyzed by flow cytometry using FACScan to calculate the percentage and number of MSCs per culture (FIG. 8). […] PD-L1 is expressed in MSC and presumably influences the induction of MSCs.
The antibody clone (#6-55, #7, #10, #13, or […]) was evaluated for its activity by the same testing method as in Example 13. #6-55 was set as a positive control for activity. […] Mouse bone marrow cells were supplemented with FSTL1 and the predetermined concentration of each antibody and cultured for 8 days. 5×10^4 cells/well were separated from each culture system and evaluated for the ability to differentiate into adipocytes using an adipocyte differentiation reagent included in “Mesenchymal Stem Cell Functional Identification Kit (R&D Systems, Inc., Cat. No. SC010)”. For the evaluation method, the cells were supplemented with the adipocyte differentiation reagent and cultured for 8 days. Then, adipocytes per culture system were counted under a microscope for evaluation. In the graph, none is depicted in the leftmost bar, and the control antibody is depicted in the second bar from the left followed by the anti-FSLT1 antibody clones. […]
Mouse bone marrow cells (bone marrow cells prepared in the same way as in Example 4) were supplemented with 20 ng/mL (final concentration) of FSTL1 and 20.0, 10.0, 5.0, or 2.5 μg/ml (final concentration) of the rat anti-FSTL1 antibody or #6-55. […] The cells were cultured for 8 days, and the inhibitory activity of each antibody against the induction of MSCs, cancer-associated MSCs, and M-MDSCs by FSTL1 was evaluated in the same way as in Example 13 (FIG. 10A). […]

[2] = Example 14, FIG. 9A/39A, #6-55 as positive control

binding activity against mouse FSTL1 (mouse FSTL1; FIG. 3B/33B): no binding activity
B1: #5-8: chicken-mouse chimeric anti-FSTL1 antibody clone; variable regions SEQ ID NO: 771 (light), 773 (heavy) (antibody, V domains shown)
VH: AVTLDESGGGLQTPGGGLSLVCKGSGFTFSSFNMFWVRQAPGKGLEWVAGIGKDGVPKYGTAVDGRATISKDNGQSTMRLQLNNLRAEDTGTYFCAKAAGGCSYDWCGIYTGDIDTWGHGTEVIVSS
VL: ASTQPSSVSANPGEAVKITCSGGSGSYYGWYQQKSPGSAPVTVIYNNNQRPSDIPSRFSGSKSGSTATLTITGVQAEDEAVYFCGGYDSSTGHGGIFGAGTTLTVL
modifications: mouse constant regions

B2: #8-1: chicken-mouse chimeric anti-FSTL1 antibody clone; variable regions SEQ ID NO: 791 (light), 793 (heavy) (antibody, V domains shown)
VH: B1 VH with G17A, T61A, T111A
VL: B1 VL with T91S
modifications: mouse constant regions
binding activity against mouse FSTL1 (mouse FSTL1; FIG. 3B/33B): slightly exhibited binding activity; also recorded: very slightly exhibited binding activity

affinity in surface plasmon resonance assay (FSTL1): strong affinity
B3: #13: chicken-mouse chimeric anti-FSTL1 antibody clone; variable regions SEQ ID NO: 815 (light), 817 (heavy) (antibody, V domains shown)
VH: AVTLDESGGGLQTPGGGLSLVCKASGFTFSSVTMQWVRQAPGKGLEWVASICSGSSTYYGPAVKGRATISRDNGQNTVRLQLNNLRAEDTATYYCAKIVGRGRWSCTSAAYNIDAWGHGTEVIVSS
VL: ASTQPSSVSANPGETVKITCSGGGNNYGWYQQKSPGSAPVTVIYNNNNRPSNIPSRFSGSKSGSTNTLTITGVQAEDEAVYYCGSYDSSSDSGIFGAGTTLTVL
modifications: mouse constant regions
inhibitory activity against the induction of MSCs, cancer-associated MSCs, and M-MDSCs by FSTL1 [1, 2]: inhibitory activity equivalent to or higher than that of the positive control (#6-55); also recorded: inhibitory activity equivalent to or higher than that of the positive control (16-55)

B4: #6-55: chicken-mouse chimeric anti-FSTL1 antibody clone; variable regions SEQ ID NO: 783 (light), 785 (heavy) (antibody, V domains shown)
VH: AVTLDESGGGLQTPGGALSLVCKGSGFTFTSVTMQWVRQAPGKGLEWVASVCSGSSTYYAPAVKGRATISRDNGQSTVRLQLSNLRPEDTGTYYCAKIAGRARWSCTSAAYNIDAWGHGTEVIVSS
VL: ASTQPSSVSAIPGETVKITCSGGGNNYGWYQQRSPGSAPVTVIYYNDNRPSNIPSRFSGSTSGSTSTLTITGVQADDEAIYYCGSWDSNTDSGIFGAGTTLTVL
modifications: mouse constant regions
affinity in surface plasmon resonance assay (FSTL1): strong affinity
dose dependence ([1]; Example 15, FIG. 10A/40A, 2.5-20.0 μg/ml): No dose-dependent effect was confirmed; also recorded: dose dependence was not confirmed
inhibitory activity against the induction of MSCs, cancer-associated MSCs, and M-MDSCs by FSTL1 ([1]; Example 15, FIG. 10A/40A, FSTL1 20 ng/mL, antibody 20.0, 10.0, 5.0, 2.5 μg/ml, 8 days): slightly superior; also recorded: at the same level
binding activity against mouse FSTL1 (mouse FSTL1; FIG. 1B/31B): specific and equivalently strong binding activity

B5: #7-34: chicken-mouse chimeric anti-FSTL1 antibody clone; variable regions SEQ ID NO: 787 (light), 789 (heavy) (antibody, V domains shown)
VH: B3 VH
VL: B3 VL with N45Y, K61T, N66S, D87E, S88G, S90T
modifications: mouse constant regions
binding activity against mouse FSTL1 (mouse FSTL1; FIG. 1B/31B): specific and equivalently strong binding activity

B6: #33: chicken-mouse chimeric anti-FSTL1 antibody clone; variable regions SEQ ID NO: 823 (light), 825 (heavy) (antibody, V domains shown)
VH: AVTLDESGGGLQTPGGGLSLVCKASGFTFSSFNMNWVRQAPGKGLEYVAEISGTGSSTYYGSAVKGRATISRDNGQSTVRLQLNNLRAEDTATYFCARGDGAYSIDAWGHGTEVIVSS
VL: ASTQPSSVSANPGETVEITCSGDSSYYGWFQQKSPGSAPVTVIYDNTNRPSDIPSRFSGSKSGSTATLTITGVRAEDEAVYYCGGYDSSTYDGIFGAGTTLTVL
modifications: mouse constant regions
affinity in surface plasmon resonance assay (FSTL1): strong affinity
inhibitory activity against the induction of MSCs, cancer-associated MSCs, and M-MDSCs by FSTL1 [1, 2]: inhibitory activity equivalent to or higher than that of the positive control (#6-55); also recorded: inhibitory activity equivalent to or higher than that of the positive control (16-55)

binding activity against mouse FSTL1 (mouse FSTL1; FIG. 3B/33B): no binding activity
B7: #8-4: chicken-mouse chimeric anti-FSTL1 antibody clone; variable regions SEQ ID NO: 795 (light), 797 (heavy) (antibody, V domains shown)
VH: AVTLDESGGGLQTPGGGLSLVCKGSGFTLSSFNMFWVRQAPGKGLEWVAGVGKDGGTAYGAAVDGRATISRDSGQSTVRLQLNNLRAEDTGTYFCAKAAGGCSYSWCGAYVGDLDAWGHGTEVIVSS
VL: ASSQPSSVSANPGETVKITCSGGSGYYYGWYQQKSPGSAPVTVIYNNDNKPSDIPSRFSGSKSGSTGTLTITGVQVEDEAVYFCGGYDNSGTGIFGAGTTLTVL
modifications: mouse constant regions
